According to publication PMC4947182:

B1: JUNO (folate receptor 4, IZUMO1R): N185D (protein)
parent chain: MAQWWQILLGLWAVLPTLAGDKLLSVCMNSKRHKQEPGPEDELYQECRPWEDNACCTRSTSWEAHLEEPLLFNFSMMHCGLLTPACRKHFIQAICFHECSPNLGPWIQPVVPNGQEEQRVWGVPLCQEDCEDWWRACHSSLTCKSNWLHGWDWSEEKKHCPAHEPCLPFSYHFPTPDDLCEKIWNNTFKASPERRNSGRCLQKWFEPTLSNPNVEVALHFAGSALAPQLSYTLPAFSLCLLFHP
B2: JUNO (folate receptor 4, IZUMO1R): N73D (protein)
parent chain: MAQWWQILLGLWAVLPTLAGDKLLSVCMNSKRHKQEPGPEDELYQECRPWEDNACCTRSTSWEAHLEEPLLFNFSMMHCGLLTPACRKHFIQAICFHECSPNLGPWIQPVVPNGQEEQRVWGVPLCQEDCEDWWRACHSSLTCKSNWLHGWDWSEEKKHCPAHEPCLPFSYHFPTPDDLCEKIWNNTFKASPERRNSGRCLQKWFEPTLSNPNVEVALHFAGSALAPQLSYTLPAFSLCLLFHP

How the values were obtained:
[1] = soluble expression of ectodomain in Sf9 cells; conditions: glycan lost; control: WT JUNO ectodomain
[2] = mRNA complementation of Juno KO eggs, fertilization rate; conditions: glycan lost; control: Juno KO eggs injected with WT mJuno mRNA

Row | Protein | expression_or_secretion [1] | other: sperm-egg fusion, other: percent eggs fertilized [2]
1 | B1 | abolishes | 
2 | B2 | no change | no change, 94.7 vs 93.5
